Assay results reported in patent US20260226161A1 (EXELIXIS, published 2026).
Residue numbers refer to the chain shown, from its start. Each block holds one binder with its values, some of them ahead of it.

How the values were obtained:
[1] = target: T1, biotinylated human NKG2C/CD94 heterodimer (extracellular domains, Fc fusions) (human, UniProt P26717 94-231; Q13241 32-179, biotinylated); test: BLI (Octet), summary of the examples
T1 construct: not shown: N-terminal Fc (hole)
Protocol: The antibodies were evaluated for binding to (1) human NKG2A, (2) human NKG2C, and (3) cyno NKG2A. Bivalent interaction of binders to biotinylated human NKG2A (see Example 1), biotinylated human NKG2C/CD94 heterodimer, or biotinylated cyno NKG2A/CD94 heterodimer immobilized on a streptavidin biosensor was monitored using Octet (Pall ForteBio) instrument. For these assays, human NKG2C/CD94 and cyno NKG2A/CD94 were prepared using the procedure as described in Example 1. Similarly, the extracellular domain of human NKG2C was expressed and purified from HEK293 cells as heterodimer with CD94 as Fc fusions. The extracellular domain of NKG2C used for selection campaigns encompassed amino acid sequence Ile94-Leu231 (Accession No. P26717-1; SEQ ID NO: 75). The gene encoding CD94 (Accession No. Q13241-1, SEQ ID NO:76), Lys33-Ile159 was synthesized from IDT and cloned into mammalian expression vector as an N-terminal Fc (hole) fusion. Plasmids encoding NKG2C-Fc fusion and CD94-Fc fusion were co-transfected into HEK293T cells using standard procedures. NKG2C/CD94 heterodimer was purified from cell supernatant using Protein A resins. Similar approach was used to obtain Cynomolgus NKG2A protein. Specifically, extracellular domain of Cynomolgus NKG2A contained amino acid Pro 94-Leu 233. […]

[2] = target: T2, NKG2A expressed on KHYG-1 cells (endogenous) (human, UniProt P26715 1-233; Q13241 1-179); test: flow cytometry on KHYG-1 cells expressing endogenous NKG2A
T2 construct: whole, on cells; Surface NKG2A copy number of approximately 10-20K; also called KHYG-1 cells expressing endogenous NKG2A; NKG2A-expressing cells
Protocol: Antibodies that were selected for binding to NKG2A, for example, such as those described in Examples 1 and 2, were evaluated for binding to cells that express NKG2A.
Cells were harvested at 70-90% confluence on the day of the assay. Cells were collected by centrifugation at 200×g for 5 minutes and media was removed. Cells were resuspended at 2×10⁶ cells per mL in cold PBS. […] 50 μL per well of the antibody dilution was plated in a 96 well V-bottom plate (Costar 3897). 50 μL per well of cell suspension was added. Plates were placed at 4° C. for 45-60 minutes.

[3] = target: T3, biotinylated cyno NKG2A/CD94 heterodimer (extracellular domains) (cynomolgus, UniProt Q9MZJ3 94-233; Q9MZK9 32-179, biotinylated); test: BLI (Octet), bivalent
T3 construct: also called Cynomolgus NKG2A protein; not shown: fusion partner/tags ('similar approach' to the human proteins); fusion partner ('similar approach')
Protocol: A total of 58 binders formatted as IgG antibodies from phage display as described in Example 1 were further tested for binding.
The antibodies were evaluated for binding to (1) human NKG2A, (2) human NKG2C, and (3) cyno NKG2A. Bivalent interaction of binders to biotinylated human NKG2A (see Example 1), biotinylated human NKG2C/CD94 heterodimer, or biotinylated cyno NKG2A/CD94 heterodimer immobilized on a streptavidin biosensor was monitored using Octet (Pall ForteBio) instrument. For these assays, human NKG2C/CD94 and cyno NKG2A/CD94 were prepared using the procedure as described in Example 1. Similarly, the extracellular domain of human NKG2C was expressed and purified from HEK293 cells as heterodimer with CD94 as Fc fusions. The extracellular domain of NKG2C used for selection campaigns encompassed amino acid sequence Ile94-Leu231 (Accession No. P26717-1; SEQ ID NO: 75). The gene encoding CD94 (Accession No. Q13241-1, SEQ ID NO:76), Lys33-Ile159 was synthesized from IDT and cloned into mammalian expression vector as an N-terminal Fc (hole) fusion. Plasmids encoding NKG2C-Fc fusion and CD94-Fc fusion were co-transfected into HEK293T cells using standard procedures. NKG2C/CD94 heterodimer was purified from cell supernatant using Protein A resins. Similar approach was used to obtain Cynomolgus NKG2A protein. Specifically, extracellular domain of Cynomolgus NKG2A contained amino acid Pro 94-Leu 233. […] Extracellular domain of Cynomolgus CD94 contained amino acid residues Lys 33-Ile 179 (Accession No. Q68VD4-1; SEQ ID NO: 78).

PD-L1 expressed on cells [4] = target: T4, PD-L1 expressed on cells (UniProt Q9NZQ7 19-290, limits assumed); test: cell-based or functional assay
PD-L1 expressed on cells [5] = target: T4, PD-L1 expressed on cells; test: flow cytometry on MC/CAR cells expressing PD-L1
Protocol: (§1) Cells were collected by centrifugation at 400×g for 7 minutes and primary antibody was removed. 50 μL per well of AF488 goat anti human IgG Fab (Jackson Immuno Research 109-547-003) at 1:100 dilution was added. Plates were placed at 4° C. for 30 minutes.
(§2) Cells were collected by centrifugation at 400×g for 7 minutes and secondary antibody was removed. Cells were resuspended in 50 μL per well of PBS and analyzed by flow cytometry. Binding curves were calculated using the mean fluorescence intensity (MFI) of the FITC fluorescence signal on the cells. Bispecific antibody binding was evaluated in KHYG-1 cells expressing endogenous NKG2A and in MC/CAR cells expressing PD-L1. Cells were harvested and assayed for binding as described above.

[6] = target: T5, Human NKG2A & CD94 with mouse IgG2a Fc tag (AcroBiosystems) (human, UniProt P26715 94-233; Q13241 32-179, limits assumed); test: SPR (Carterra), antibody on chip, soluble antigen
T5 construct: Bought soluble antigen of the Carterra assay; also called hNKG2A; not shown: mouse IgG2a Fc tag

[7] = target: T6, Human PD-L1 with His tag (AcroBiosystems) (human, UniProt Q9NZQ7 19-238); test: SPR (Carterra), antibody on chip, soluble antigen
T6 construct: Bought protein; also called hPD-L1; not shown: His tag

Cyno PD-L1 = Cyno PD-L1 (cyno, UniProt G7PSE7 19-238); test: SPR (Carterra), antibody on chip, soluble antigen
[8] = target: T2, NKG2A expressed on KHYG-1 cells …; test: flow cytometry on KHYG-1 cells expressing endogenous NKG2A; remark: listed apart in the source
Protocol: as §1, §2

[9] = target: T2, NKG2A expressed on KHYG-1 cells …; test: flow cytometry competition; inhibition of HLA-E tetramer binding to KHYG-1 cells
Protocol: 15 μL per well of binder dilution at 2× concentration was plated in a 96-well plate (Costar 3897). 15 μL per well of cell suspension at 5×10⁶ cells per mL was added. Plates were placed at 4° C. for 30 minutes. Following the incubation, 5 μL per well of Fc block (BD Pharmingen Cat #564220) was added at a final concentration of 500 ng per well. Plates were placed at 4° C. for 10 minutes. […] Plates were placed at 4° C. for 1 hour. Following the incubation, 100 μL per well of PBS was added and plate was centrifuged at 400×g for 7 minutes. Supernatant was removed by flicking the plate. Cells were resuspended in 50 μL per well of PBS and analyzed by flow cytometry (Intellicyt).

Cyno PD-L1, sequence (G7PSE7 entry or part of it limits assumed): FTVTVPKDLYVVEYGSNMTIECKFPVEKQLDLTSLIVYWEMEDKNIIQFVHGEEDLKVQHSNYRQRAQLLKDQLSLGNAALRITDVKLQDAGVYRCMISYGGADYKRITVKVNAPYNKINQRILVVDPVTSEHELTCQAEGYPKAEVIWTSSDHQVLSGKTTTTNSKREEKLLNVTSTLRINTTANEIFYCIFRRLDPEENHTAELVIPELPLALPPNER
T5 sequence (P26715 94-233 limits assumed, chain 1 of 2): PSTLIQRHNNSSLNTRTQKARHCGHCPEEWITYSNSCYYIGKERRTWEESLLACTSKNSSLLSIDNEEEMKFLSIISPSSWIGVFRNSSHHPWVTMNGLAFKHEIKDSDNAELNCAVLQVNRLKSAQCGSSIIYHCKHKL
T5 sequence (Q13241 32-179 limits assumed, chain 2 of 2): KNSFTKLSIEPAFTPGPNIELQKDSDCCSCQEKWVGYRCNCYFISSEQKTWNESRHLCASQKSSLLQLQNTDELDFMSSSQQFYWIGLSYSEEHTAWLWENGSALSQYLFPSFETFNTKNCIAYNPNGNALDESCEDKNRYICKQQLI
T4 sequence (Q9NZQ7 19-290 limits assumed): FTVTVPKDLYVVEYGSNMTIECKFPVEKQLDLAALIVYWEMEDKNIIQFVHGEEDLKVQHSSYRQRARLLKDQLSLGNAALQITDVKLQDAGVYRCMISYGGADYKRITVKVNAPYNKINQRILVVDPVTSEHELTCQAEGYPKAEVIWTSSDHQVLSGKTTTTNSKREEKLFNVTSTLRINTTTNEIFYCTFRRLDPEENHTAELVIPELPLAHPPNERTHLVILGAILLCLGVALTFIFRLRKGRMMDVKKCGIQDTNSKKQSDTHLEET
T6 sequence (Q9NZQ7 19-238 limits assumed): as the sequence (G7PSE7 entry or part of it limits assumed) above, with T33A, S34A, N62S, Q68R, R82Q, L173F, A185T, I192T, L215H counted along it
T2 sequence (P26715 whole entry, chain 1 of 2): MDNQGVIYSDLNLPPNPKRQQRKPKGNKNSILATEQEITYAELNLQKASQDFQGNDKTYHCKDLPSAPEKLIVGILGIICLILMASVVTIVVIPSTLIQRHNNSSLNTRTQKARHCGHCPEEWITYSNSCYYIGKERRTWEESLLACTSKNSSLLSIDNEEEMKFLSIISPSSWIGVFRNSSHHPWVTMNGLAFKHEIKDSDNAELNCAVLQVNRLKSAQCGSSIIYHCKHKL
T2 sequence (Q13241 whole entry, chain 2 of 2): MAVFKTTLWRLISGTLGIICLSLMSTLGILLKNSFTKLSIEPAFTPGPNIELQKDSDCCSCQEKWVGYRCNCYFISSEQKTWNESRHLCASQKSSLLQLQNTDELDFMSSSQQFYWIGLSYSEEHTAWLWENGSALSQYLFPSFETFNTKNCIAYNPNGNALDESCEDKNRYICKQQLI
T1 sequence (P26717 other isoform, or with tags, fused parts or gaps, chain 1 of 2): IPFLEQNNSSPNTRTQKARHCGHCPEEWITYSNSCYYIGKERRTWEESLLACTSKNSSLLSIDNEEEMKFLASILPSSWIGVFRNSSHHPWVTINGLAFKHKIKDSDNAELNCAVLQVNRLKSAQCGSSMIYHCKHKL
T1 sequence (Q13241 32-179, chain 2 of 2): as the sequence (Q13241 32-179 limits assumed, chain 2 of 2) above
T3 sequence (Q9MZJ3 other isoform, or with tags, fused parts or gaps, chain 1 of 2): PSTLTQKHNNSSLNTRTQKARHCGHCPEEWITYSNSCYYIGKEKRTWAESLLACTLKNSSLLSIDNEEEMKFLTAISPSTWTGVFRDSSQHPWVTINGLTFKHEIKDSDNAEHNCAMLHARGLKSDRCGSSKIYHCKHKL
T3 sequence (Q9MZK9 32-179, chain 2 of 2): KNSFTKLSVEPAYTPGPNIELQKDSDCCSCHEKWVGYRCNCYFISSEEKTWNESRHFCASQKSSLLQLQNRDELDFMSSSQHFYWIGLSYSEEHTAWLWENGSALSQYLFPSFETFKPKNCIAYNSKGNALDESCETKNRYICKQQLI

binding result [1]: no binding
EC50 [2]: 0.303 nM
B1: Antibody Clone A3 (antibody, human IgG1, kappa, V domains shown)
VH: EVQLVESGGGLVQPGGSLRLSCAASGFTFSSYYIHWVRQAPGKGLEWVASISPYDGYTDYADSVKGRFTISADTSKNTAYLQMNSLRAEDTAVYYCARSSDFSPWTSSGGMDYWGQGTLVTVSS
VL: DIQMTQSPSSLSASVGDRVTITCRASQSVSSAVAWYQQKPGKAPKLLIYSASSLYSGVPSRFSGSRSGTDFTLTISSLQPEDFATYYCQQYGSSLRTFGQGTKVEIKR

binding result [3]: no binding
binding result [1]: no binding
EC50 [2]: 37.5 nM
B2: Antibody Clone A2 (antibody, human IgG1, kappa, V domains shown)
VH: B1 VH with I51Y, S52V, Y54E, S103I
VL: B1 VL with S31R, Y55H, L95A

IC50 of inhibiting PD-1/PD-L1 interaction in PD-L1+MDA-MB-231 cells (PD-1/PD-L1 Signaling Bioassay, chemiluminescent signal) (PD-L1 expressed on cells [4]): 689 pM
EC50 (PD-L1 expressed on cells [5]): 6.49 nM
Kd [6]: 0.15 nM
koff [6]: 5e-05 s⁻¹
kon [6]: 360000 M⁻¹ s⁻¹
Kd [7]: 0.15 nM
koff [7]: 7e-05 s⁻¹
kon [7]: 470000 M⁻¹ s⁻¹
Kd (Cyno PD-L1): 0.12 nM
koff (Cyno PD-L1): 5e-05 s⁻¹
kon (Cyno PD-L1): 480000 M⁻¹ s⁻¹
EC50 [8]: 0.149 nM
EC50 [9]: 0.36 nM
B3: P12 × A2A2 (1 × 2 format) (bispecific antibody)
heavy 1: DIQMTQSPSSLSASVGDRVTITCRASQSVSSAVAWYQQKPGKAPKLLIYSASSLYSGVPSRFSGSRSGTDFTLTISSLQPEDFATYYCQQFMLEPITFGQGTKVEIKGQPREPQVCTLPPSRDELTKNQVSLTCLVRGFYPSDIAVEWESNGQPENNYKTTPPVLDSDGSFFLYSKLTVDKSRWQQGNVFSCSVMHEALHNHYTQKSLSLSPGKDKTHTCPPCPAPEAAGGPSVFLFPPKPKDTLMISRTPEVTCVVVDVSHEDPEVKFNWYVDGVEVHNAKTKPREEQYNSTYRVVSVLTVLHQDWLNGKEYKCKVSNKALKAPIEKTISKAKGQPREPQVYTLPPSREEMTKNQVSLSCAVKGFYPSDIAVEWESNGQPENNYKTTPPVLDSDGSFFLVSKLTVDKSRWQQGNVFSCSVMHEALHNHYTQKSLSLSPGK
light 1: EVQLVESGGGLVQPGGSLRLSCAASGFTFSSYYIHWVRQAPGKGLEWVATINSRGGFTLYADSVKGRFTISADTSKNTAYLQMNSLRAEDTAVYYCARGYTLTPVLDYWGQGTLVTVSSAQPREPQVYTLPPCRDWLTKNQVSLTCLVKGFYPSDIAVEWESNGQPENNYKTTPPVLDSDGSFFLYSKLTVDKSRWQQGNVFSCSVMHEALHNHYTQKSLSLSPGK
heavy 2: not shown
light 2: EVQLVESGGGLVQPGGSLRLSCAASGFTFSSYYIHWVRQAPGKGLEWVASYVPEDGYTDYADSVKGRFTISADTSKNTAYLQMNSLRAEDTAVYYCARSSDFIPWTSSGGMDYWGQGTLVTVSSASTKGPSVFPLAPSSKSTSGGTAALGCLVKDYFPEPVTVSWNSGALTSGVHTFPAVLQSSGLYSLSSVVTVPSSSLGTQTYICNVNHKPSNTKVDKKVEPKSC
notes: One PD-L1 site, two NKG2A sites; also called P12×A2A2, sFc; P12 × A2A2 sFc

IC50 of inhibiting PD-1/PD-L1 interaction in PD-L1+MDA-MB-231 cells (PD-1/PD-L1 Signaling Bioassay, chemiluminescent signal) (PD-L1 expressed on cells [4]): 567 pM
EC50 (PD-L1 expressed on cells [5]): 1.76 nM
Kd [6]: 0.34 nM
koff [6]: 9e-05 s⁻¹
kon [6]: 270000 M⁻¹ s⁻¹
Kd [7]: 0.24 nM
koff [7]: 9e-05 s⁻¹
kon [7]: 380000 M⁻¹ s⁻¹
Kd (Cyno PD-L1): 0.13 nM
koff (Cyno PD-L1): 6e-05 s⁻¹
kon (Cyno PD-L1): 470000 M⁻¹ s⁻¹
EC50 [8]: 0.168 nM
EC50 [9]: 0.42 nM
B4: P12 × A11A11 (1 × 2 format) (bispecific antibody)
heavy 1: B3 heavy 1
light 1: B3 light 1
heavy 2: not shown
light 2: EVQLVESGGGLVQPGGSLRLSCAASGFTFSWYYIHWVRQAPGKGLEWVAVIDPISSYTYYADSVKGRFTISADTSKNTAYLQMNSLRAEDTAVYYCARGFDRAMDYWGQGTLVTVSSASTKGPSVFPLAPSSKSTSGGTAALGCLVKDYFPEPVTVSWNSGALTSGVHTFPAVLQSSGLYSLSSVVTVPSSSLGTQTYICNVNHKPSNTKVDKKVEPKSC
notes: One PD-L1 site, two NKG2A sites; also called P12×A11A11, sFc; P12 × A11A11 sFc
